# Assay results from the Human Domainome abundance scans (Beltran et al. 2025).
# ± gives the uncertainty stated by the source.
# B1: Retinoic acid receptor beta, residues 85 to 161; numbered along this chain, P10826 (parent)
# chain: YKPCFVCQDKSSGYHYGVSACEGCKGFFRRSIQKNMIYTCHRDKNCVINKVTRNRCQYCRLQKCFEVGMSKESVRND
# Variants of: B1
# Assay: abundance fitness (aPCA) (normalised: wild type 0, dead -1); higher = more abundant; growth selection in yeast, the domain comes from the species named
# Conditions: Homo sapiens
row,Variant,abundance fitness
1,E66L,-0.039 ± 0.046
2,E66N,-0.028 ± 0.11
3,E66A,-0.105 ± 0.057
4,E66P,-0.595 ± 0.13
5,E66V,-0.032 ± 0.042
6,E66C,-0.153 ± 0.083
7,E66I,-0.092 ± 0.1
8,E66S,-0.078 ± 0.047
9,E66D,0.096 ± 0.075
10,E66Q,-0.011 ± 0.057
11,E66R,0.011 ± 0.034
12,E66F,-0.036 ± 0.11
13,E66G,-0.014 ± 0.037
14,E66M,0.082 ± 0.05
15,E66T,0.008 ± 0.07
16,E66W,-0.139 ± 0.054
17,E66Y,-0.136 ± 0.085
18,M69Y,-0.588 ± 0.32
19,M69F,-0.406 ± 0.27
20,M69A,-0.81 ± 0.16
21,M69T,-0.515 ± 0.21
22,M69C,-0.31 ± 0.16
23,M69G,-0.813 ± 0.11
24,M69D,-0.498 ± 0.26

row,Variant,abundance fitness
1,M69W,-0.235 ± 0.066
2,M69P,-0.917 ± 0.39
3,M69E,-0.751 ± 0.21
4,M69K,-0.983 ± 0.35
5,M69V,-0.591 ± 0.096
6,M69N,-0.725 ± 0.28
7,M69I,-0.142 ± 0.38
8,M69R,-0.741 ± 0.11
9,R75L,0.102 ± 0.04
10,R75Y,0.118 ± 0.077
11,R75C,0.175 ± 0.065
12,R75D,-0.051 ± 0.078
13,R75A,0.137 ± 0.044
14,R75F,-0.187 ± 0.12
15,R75S,-0.045 ± 0.055
16,R75H,0.078 ± 0.11
17,R75V,0.046 ± 0.042
18,R75W,0.065 ± 0.043
19,R75G,0.09 ± 0.034
20,R75N,0.073 ± 0.092
21,R75K,-0.018 ± 0.065
22,R75Q,0.163 ± 0.095
23,R75T,-0.02 ± 0.06
24,R75P,0.039 ± 0.073

row,Variant,abundance fitness
1,R75E,0.124 ± 0.045
2,D77P,0.096 ± 0.073
3,D77E,0.125 ± 0.073
4,D77Q,0.066 ± 0.12
5,D77M,0.007 ± 0.084
6,D77R,-0.194 ± 0.053
7,D77F,-0.183 ± 0.32
8,D77W,-0.347 ± 0.086
9,D77K,-0.082 ± 0.14
10,D77N,-0.333 ± 0.1
11,D77H,0.087 ± 0.16
12,D77A,-0.126 ± 0.063
13,D77T,-0.348 ± 0.12
14,D77Y,0.044 ± 0.1
15,D77S,-0.093 ± 0.065
16,D77L,-0.202 ± 0.073
17,D77I,-0.06 ± 0.11
18,D77V,-0.054 ± 0.057
19,G68K,-0.392 ± 0.085
20,G68S,-0.595 ± 0.075
21,G68T,-0.687 ± 0.12
22,G68N,-0.338 ± 0.12
23,G68L,-0.807 ± 0.11
24,G68P,-0.738 ± 0.17

row,Variant,abundance fitness
1,G68H,-0.743 ± 0.24
2,G68W,-0.779 ± 0.12
3,G68A,-0.804 ± 0.11
4,G68Y,-1.05 ± 0.41
5,G68Q,-0.698 ± 0.17
6,G68F,-0.204 ± 0.12
7,G68I,-0.95 ± 0.24
8,G68C,-0.698 ± 0.16
9,G68M,-0.77 ± 0.17
10,G68E,-0.763 ± 0.14
11,G68D,-0.663 ± 0.12
12,G68V,-0.81 ± 0.12
13,G68R,-0.681 ± 0.078
14,F65I,0.119 ± 0.075
15,F65V,-0.019 ± 0.034
16,F65C,-0.197 ± 0.082
17,F65Q,-0.156 ± 0.057
18,F65N,-0.128 ± 0.096
19,F65P,-0.542 ± 0.12
20,F65W,-0.174 ± 0.045
21,F65H,-0.253 ± 0.14
22,F65E,-0.024 ± 0.042
23,F65S,-0.31 ± 0.052
24,F65K,-0.081 ± 0.048

row,Variant,abundance fitness
1,F65G,-0.442 ± 0.037
2,F65A,-0.291 ± 0.047
3,F65Y,-0.009 ± 0.087
4,F65M,0.026 ± 0.044
5,F65L,0.014 ± 0.036
6,F65R,-0.22 ± 0.035
7,F65T,-0.02 ± 0.048
8,F65D,-0.423 ± 0.093
9,C64S,-0.461 ± 0.06
10,C64H,-0.646 ± 0.15
11,C64T,-0.769 ± 0.14
12,C64D,-0.996 ± 0.25
13,C64Y,-1.17 ± 0.34
14,C64I,-0.729 ± 0.36
15,C64L,-0.734 ± 0.09
16,C64Q,-0.426 ± 0.1
17,C64V,-0.628 ± 0.084
18,C64G,-0.658 ± 0.045
19,C64K,-0.885 ± 0.14
20,C64R,-0.732 ± 0.059
21,C64M,-0.412 ± 0.067
22,C64N,-0.969 ± 0.42
23,C64E,-0.799 ± 0.088
24,C64P,-0.689 ± 0.18

row,Variant,abundance fitness
1,C64A,-0.329 ± 0.052
2,V67G,-0.161 ± 0.056
3,V67M,-0.063 ± 0.054
4,V67T,-0.178 ± 0.055
5,V67D,-0.8 ± 0.22
6,V67Y,-0.645 ± 0.2
7,V67W,-0.636 ± 0.16
8,V67E,-0.282 ± 0.067
9,V67K,0.017 ± 0.054
10,V67L,-0.084 ± 0.043
11,V67R,-0.291 ± 0.057
12,V67Q,-0.035 ± 0.065
13,V67A,-0.012 ± 0.043
14,V67C,-0.172 ± 0.081
15,V67S,-0.059 ± 0.052
16,V67F,-0.054 ± 0.088
17,V67H,-0.354 ± 0.24
18,S70Q,-0.009 ± 0.074
19,S70P,-0.304 ± 0.094
20,S70A,-0.047 ± 0.047
21,S70Y,-0.291 ± 0.098
22,S70F,-0.111 ± 0.089
23,S70E,0.039 ± 0.052
24,S70I,0.262 ± 0.14

row,Variant,abundance fitness
1,S70L,0.071 ± 0.053
2,S70H,0.022 ± 0.099
3,S70C,-0.076 ± 0.067
4,S70V,0.038 ± 0.044
5,S70K,0.078 ± 0.05
6,S70R,-0.053 ± 0.039
7,S70T,0.067 ± 0.053
8,S70W,-0.417 ± 0.065
9,S70D,-0.085 ± 0.067
10,S70M,-0.115 ± 0.092
11,S70G,-0.184 ± 0.037
12,K63R,-0.041 ± 0.032
13,K63W,-0.772 ± 0.095
14,K63T,-0.11 ± 0.055
15,K63S,-0.443 ± 0.072
16,K63Y,-0.37 ± 0.21
17,E72K,-0.191 ± 0.062
18,E72S,-0.037 ± 0.048
19,E72Q,-0.134 ± 0.075
20,E72G,-0.128 ± 0.038
21,E72F,-0.337 ± 0.13
22,E72D,0.127 ± 0.059
23,E72P,-0.101 ± 0.076
